Source: IntAct's records for PubMed 15047893

B1: Serine/threonine-protein kinase TOUSLED (Arabidopsis thaliana (Mouse-ear cress)), Q39238 (parent)
chain: MSDDMVLHFSSNSSNQSDHSLPDKIAKLEARLTGKTPSSAKPPQQQQQQQQQVSLWSSASAAVKVVTSTPPGLSETSISDSDDENTGDFLIRANTKKRQKVQESNNFSVVDHVEPQEAAYDGRKNDAESKTGLDVSKKKQGRGRASSTGRGRGSKTNNDVTKSQFVVAPVSAASQLDASDQKDFRPDGQLRNGECSLQDEDLKSLRAKIAMLEEELRKSRQDSSEYHHLVRNLENEVKDLKDQEQQGKQKTTKVISDLLISVSKTERQEARTKVRNESLRLGSVGVLRTGTIIAETWEDGQMLKDLNAQLRQLLETKEAIERQRKLLKKRQNGDKNDGTDTESGAQEEDIIPDEVYKSRLTSIKREEEAVLRERERYTLEKGLLMREMKRIRDEDGSRFNHFPVLNSRYALLNLLGKGGFSEVYKAYDLVDHRYVACKLHGLNAQWSEEKKQSYIRHANRECEIHKSLVHHHIVRLWDKFHIDMHTFCTVLEYCSGKDLDAVLKATSNLPEKEARIIIVQIVQGLVYLNKKSQKIIHYDLKPGNVLFDEFGVAKVTDFGLSKIVEDNVGSQGMELTSQGAGTYWYLPPECFELNKTPMISSKVDVWSVGVLFYQMLFGKRPFGHDQSQERILREDTIIKAKKVEFPVTRPAISNEAKDLIRRCLTYNQEDRPDVLTMAQDPYLAYSKK
partner: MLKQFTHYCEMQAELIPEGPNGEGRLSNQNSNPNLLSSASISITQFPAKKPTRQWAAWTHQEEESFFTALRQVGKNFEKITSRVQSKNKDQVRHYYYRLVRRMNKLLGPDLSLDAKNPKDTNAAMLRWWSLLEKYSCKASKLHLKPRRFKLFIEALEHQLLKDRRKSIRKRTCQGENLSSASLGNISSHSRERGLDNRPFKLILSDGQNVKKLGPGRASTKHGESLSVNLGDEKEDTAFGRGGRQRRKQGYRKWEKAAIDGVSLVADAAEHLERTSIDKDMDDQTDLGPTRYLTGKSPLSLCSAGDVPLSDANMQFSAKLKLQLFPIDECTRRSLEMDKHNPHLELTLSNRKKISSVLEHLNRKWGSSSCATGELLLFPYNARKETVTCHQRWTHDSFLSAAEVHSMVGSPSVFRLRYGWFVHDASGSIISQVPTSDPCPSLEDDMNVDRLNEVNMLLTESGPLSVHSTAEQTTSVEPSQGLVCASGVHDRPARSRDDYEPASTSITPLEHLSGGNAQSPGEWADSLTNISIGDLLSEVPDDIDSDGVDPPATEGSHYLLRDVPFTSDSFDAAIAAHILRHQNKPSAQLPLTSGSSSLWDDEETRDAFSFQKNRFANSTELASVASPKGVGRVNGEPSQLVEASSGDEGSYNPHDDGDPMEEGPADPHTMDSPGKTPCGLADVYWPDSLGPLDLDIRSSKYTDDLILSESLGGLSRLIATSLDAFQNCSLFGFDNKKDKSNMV
B2: Serine/threonine-protein kinase TOUSLED (Arabidopsis thaliana (Mouse-ear cress)), Q39238 (parent)
chain: B1 chain
partner: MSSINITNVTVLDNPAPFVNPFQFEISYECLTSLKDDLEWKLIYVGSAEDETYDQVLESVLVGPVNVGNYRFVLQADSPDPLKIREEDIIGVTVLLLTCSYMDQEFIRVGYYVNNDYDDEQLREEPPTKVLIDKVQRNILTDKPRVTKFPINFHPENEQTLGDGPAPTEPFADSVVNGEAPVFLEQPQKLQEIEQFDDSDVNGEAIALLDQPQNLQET

Variants of: B1
Settings: with tki1_arath TKI1, Q8LJT8

Row | Variant | effect of a mutation on the interaction
1 | K438E | disrupting interaction

Variants of: B2
Settings: with asf1b_arath ASF1B

Row | Variant | effect of a mutation on the interaction
2 | K438E | disrupting interaction
